Laboratory results from article PMC11559061.

Experiments:
[1] = molecular target: T1, Fur (ferric uptake regulator) (Staphylococcus aureus) (UniProt A0A0H2XGT2); test: EMSA
T1 sequence: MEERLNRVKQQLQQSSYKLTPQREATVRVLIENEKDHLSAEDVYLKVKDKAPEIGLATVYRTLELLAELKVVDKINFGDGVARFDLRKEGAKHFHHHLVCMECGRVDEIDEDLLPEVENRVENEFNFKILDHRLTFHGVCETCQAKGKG

[2] = molecular target: T2, purified S. aureus Fur (S. aureus) (UniProt P0A032)
T2 sequence: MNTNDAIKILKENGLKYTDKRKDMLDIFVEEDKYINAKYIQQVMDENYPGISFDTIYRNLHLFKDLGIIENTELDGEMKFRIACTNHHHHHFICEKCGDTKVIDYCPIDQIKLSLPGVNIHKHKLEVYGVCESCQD

**Q.** For “CTTTAGTAAAATCATAAATAATAATGATTATCATTGTCAATATTTATTTTATAATCAATTTATTATTGTTATACGAAAATAGATGTGCTAGTATAATTGATAACCATTATCAATTGCAATGGTTAATC (double strand) [isdC operator (two Fur boxes), 128 bp PCR product]”, which binding [1] is on record?
**A.** binds

B1: purified S. aureus Fpa (natural protein)
chain: MAKQATMKNAALKQLTKDADEILHLIKVQLDNLTLPSCPLYEEVLDTQMFGLQKEVDFAVKLGLVDREDGKQIMLRLEKELSKLHEAFTLV
**Q.** With B1 as the molecule, how does the EMSA: association of Fur (40 µM) with isdC operator DNA, Fpa titrated in (0-40 µM by the legend, 0-80 µM by the methods), with 100 µM MnCl2 [2] read?
**A.** 20 µM
